Experimental data published in publication PMC7214467 (Nature Communications, 2020).

Experiments:
CD3 on Jurkat cells = target: T1, CD3 on Jurkat cells (Homo sapiens, endogenous on Jurkat …, UniProt P07766); assay: flow cytometry on cells; Jurkat cells; titrated from 30 μg/mL in 3-fold dilutions, on ice; detected with PE goat anti-human lambda; conditions: one partner purified
T1 construct: CD3 of the T cell receptor complex on Jurkat cells; On cells CD3ε stands with the other CD3 chains and the TCR; also called CD3+ Jurkat cells; source: endogenous, on Jurkat cells (ATCC TIB-152)

[1] = target: HLA-A2/NY-ESO-1 peptide complex on tumor cells (Homo sapiens, HLA-A2 (A*02:01 assumed), …); assay: cell-based or functional assay

T1 sequence (P07766 23-207): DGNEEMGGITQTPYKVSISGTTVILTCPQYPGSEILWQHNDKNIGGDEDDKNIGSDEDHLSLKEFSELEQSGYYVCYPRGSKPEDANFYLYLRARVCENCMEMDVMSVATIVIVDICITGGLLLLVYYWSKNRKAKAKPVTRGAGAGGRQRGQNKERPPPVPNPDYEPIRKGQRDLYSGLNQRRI

B1: TCR/CD3 IgG BsAb with the 1G4_122 NY-ESO-1 TCR (stabilized Cα/Cβ subunit) and the chimeric SP-34 anti-CD3 arm (bispecific antibody, V domains shown)
VH: EVQLVESGGGLVQPKGSLKLSCAASGFTFNTYAMNWVRQAPGKGLEWVARIRSKYNNYATYYADSVKDRFTISRDDSQSLLYLQMNNLKTEDTAMYYCVRHGNFGNSYVSWFAYWGQGTLVTVSA
VL: QAVVTQESALTTSPGETVTLTCRSSTGAVTTSNYANWVQEKPDHLFTGLIGGTNKRAPGVPARFSGSLIGDKAALTITGAQTEDEAIYFCALWYSNLWVFGGGTKLTVL
notes: soluble 1G4_122 TCR α chain; Cα with the stabilizing mutations as in m1; soluble 1G4_122 TCR β chain; Cβ with the stabilizing mutations as in m2; detected with goat anti-human lambda; Two heavy chains joined by the 7.8.60 Fc heterodimer design; also called IgG-like BsAb; TCR/CD3 bifunctional; source: CHO K1SV KO, transient, secreted, purified (mAbSure resin, preparative size exclusion); copies: + …
binding result (CD3 on Jurkat cells): binds | T cell redirected lysis of peptide-pulsed Saos-2 cells by primary T cells, 48 h, EC50 [1]: ~1 nM

B2: TCR/CD3 Tandem BsAb with the stabilized 1G4_122 NY-ESO-1 TCR and the chimeric SP-34 anti-CD3 Fab (bispecific antibody, V domains shown)
VH: EVQLVESGGGLVQPKGSLKLSCAASGFTFNTYAMNWVRQAPGKGLEWVARIRSKYNNYATYYADSVKDRFTISRDDSQSLLYLQMNNLKTEDTAMYYCVRHGNFGNSYVSWFAYWGQGTLVTVSA
VL: QAVVTQESALTTSPGETVTLTCRSSTGAVTTSNYANWVQEKPDHLFTGLIGGTNKRAPGVPARFSGSLIGDKAALTITGAQTEDEAIYFCALWYSNLWVFGGGTKLTVL
notes: soluble 1G4_122 TCR α chain; Cα with the stabilizing mutations as in m1; soluble 1G4_122 TCR β chain; Cβ with the stabilizing mutations as in m2; detected with goat anti-human lambda; also called tandem Fab BsAb; tandem Fab; copies: + + +
binding result (CD3 on Jurkat cells): binds | T cell redirected lysis of peptide-pulsed 624.38 cells by primary T cells, 48 h, EC50 [1]: ~0.1 nM | T cell redirected lysis of peptide-pulsed Saos-2 cells by primary T cells, 48 h, EC50 [1]: ~0.03 nM
